Data: PMC3688963, “Biochemical Characterization of Hypothetical Proteins from Helicobacter pylori” (PLoS ONE, 2013)

Columns and labels:
[1] = substrate: Nc1nc2c(ncn2[C@@H]2O[C@H](COP(=O)(O)OP(=O)(O)OP(=O)(O)O)[C@@H](O)[C@H]2O)c(=O)[nH]1; assay: fluorimetric neopterin detection after iodine oxidation and alkaline phosphatase; type: biochemical, Helicobacter pylori; settings: 100 mM sodium citrate pH 4.0, 30°C, 2.5 mM EDTA
Description: fluorimetric neopterin detection after iodine oxidation and alkaline phosphatase on HP0959

purified protein [2] = substrate: Cc1cc(=O)oc2cc(NC(=O)[C@H](CCCNC(=N)N)NC(=O)[C@@H](N)Cc3ccccc3)ccc12; assay: purified protein; settings: 100 mM sodium citrate pH 4.5, 30°C, 5 mM CaCl2, 0.1% Brij
[3] = substrate: [H][C@@]12COP(=O)(O)O[C@@]1([H])[C@@H](O)[C@H](n1cnc3c(=O)[nH]c(N)nc31)O2; assay: alkaline phosphatase-coupled phosphate release, malachite green; type: biochemical, Helicobacter pylori; settings: 0.1 mM MnCl2, pH 4.0-4.5, 30°C
purified protein [4] = substrate: O=[N+]([O-])c1ccc(OP(=O)(O)Oc2ccc([N+](=O)[O-])cc2)cc1; assay: purified protein; type: biochemical, Helicobacter pylori; settings: 1.0 mM MnCl2, 100 mM sodium citrate pH 4.5 (4.0 in Figure 1 legend), 30°C
[5] = substrate: Nc1nc2c(ncn2[C@@H]2O[C@H](COP(=O)(O)OP(=O)(O)OP(=O)(O)O)[C@@H](O)[C@H]2O)c(=O)[nH]1; assay: phosphate release, malachite green; type: biochemical, Helicobacter pylori; settings: 10 mM MgCl2, 10% glycerol, 100 mM sodium acetate pH 6.0, 30°C
Description: phosphate release, malachite green on HP1079

purified protein [6] = substrate: Nc1ncnc2nc[nH]c12; assay: purified protein; type: biochemical, Helicobacter pylori; settings: 100 mM HEPES pH 7.5, 30°C, native protein

B1: HP0959 (Helicobacter pylori 26695) (protein)
chain: MALVKEVLVVLNRLSPFELQESWDNSGLNVGSENSEFSEIVACLEITLKIALNAPQNALIITHHPLIFKPLKTLNDEIYPGNILKILIQKNVSVISMHTNFDKTHLNKHFAHALLEFDGLVEKGLMLVKENANIEFDALVKKIKSSLGVGSLACVKSSQTIKDLAFVCGSGASMFSSLKAQSCLITGDVKYHDAMIAQSLGISLIDATHYYSERGFALIVAEILHSFNYLVTIENFKNPLQII
notes: native protein captured with GTP/dihydroneopterin triphosphate-coated nano-particles (co-captured with HP0803); His6 recombinant also active
Km [1]: 40 ± 5 µM
Vmax [1]: 1420 µM/min
kcat [1]: 43.2 ± 0.483 s⁻¹
kcat/Km [1]: 1.08e+06 M⁻¹ s⁻¹

B2: HP1037 (Helicobacter pylori 26695) (protein)
chain: MKGLERESHFTLNENAMFFECAYSCDNALFLQLDDRSFFITDSRYTQEAKESVQPKNGVLAEVVESSDLVQSAIDLIVKSSVKKLFFDPNQVNLQTYKRLNSALGDKVALEGVPSYHRQKRIIKNEHEIQLLKKSQALNVEAFENFAEYVKKIFDEKESLSERYLQHKVKDFLTREGVYDLSFEPILALNANASKPHALPSAKDFLKAEHSILLDMGIKYERYCSDRTRTAFFDPKDFVFKREQSFKDKERQKIYDIVKEAQEKAISGIRAGMTGKEADSLARGVISDYGYGQYFTHSTGHGIGLDIHELPYISSRSETILEEGMVFSVEPGIYIPGFFGVRIEDLVVIKNSRSELL
Km (purified protein [2]): 7430 ± 360 µM
Vmax (purified protein [2]): 750 µM/min
kcat (purified protein [2]): 0.17 s⁻¹
kcat/Km (purified protein [2]): 20 M⁻¹ s⁻¹

B3: HP1042 (Helicobacter pylori 26695) (protein)
chain: MMQVYHLSHIDLDGYACQLVSKQFFKNIQCYNANYGREVSARIYEILNAIAQSKESEFLILVSDLNLNLNEAEYLQDKIQEHRLQNKNIQIQLLDHHISGKEVAESFHWYFLDINRCATKIVYEFLKKHYAILEPKNTTWLEPLVEMVNSVDIWDTQGYGFELGKVCMRMINQSSELNRFMFDDENRNYKLKLLEEVKNYLFLENAPVAYDNDLFKLKKIALGGDPDAETMDNISSNAQTHLLSLKKHDCSVYYQDKKGFLSYSMGGISVLANLFLTQNPDFDFYMDVNAKGNVSLRANGNCDVCELSQMCFNGGGHRNASGGKIDGFRESFNYRDIKEQIEEIFNNA
notes: native protein captured with cAMP-coated nano-particles; His6 recombinant also made
Km [3]: 820 ± 150 µM
Vmax [3]: 5130 µM/min
kcat [3]: 15.9 ± 1.37 s⁻¹
kcat/Km [3]: 19500 M⁻¹ s⁻¹
Km (purified protein [4]): 530 ± 40 µM
Vmax (purified protein [4]): 1130 µM/min
kcat (purified protein [4]): 18.1 ± 0.2 s⁻¹
kcat/Km (purified protein [4]): 34100 M⁻¹ s⁻¹

B4: HP1079 (Helicobacter pylori 26695) (protein)
chain: MIQSVRIKNFKNFKNTKIDGFTKLNIITGQNNAGKSNLLEALYYLVGKSMHPCTNVLEIYDNIRKEPLTSESKSLMFYGLDTKEEIQIVTTLDNNQTLDLQIKFIASENQKVIESQIIPTAEQTQMSSQLNFTLKKNNEEIYNDHLNIAKVPNFPPIPNQSGYNRQFKNFDSNQLQKLLPFESAVIIPSDVVYRQAHMIQAVSKICSNNQLEEELNKHLNQFDNNIQAISFNTNNQLKLKVKDIKEKVPLSVFGDGLKKYLHIVSAFMADNAKTIYIDEVENGLHFSRMRLLLKNTIDFINNNKDGNLQVFMTTHSQEFIEILDQVIREKDFAHQTKLFCLKQDDQYVIPRTYYGENLEYYFENEENLFG
notes: native protein captured with GTP-coated nano-particles; His6 recombinant also made
Km [5]: 580 ± 50 µM
kcat [5]: 0.0095 ± 0.002 s⁻¹
kcat/Km [5]: 20 M⁻¹ s⁻¹

B5: HP0267 (native protein) (Helicobacter pylori 26695) (protein)
chain: MQEIIGASLVFLCNEKCEVLEDYGVVFDEKIVEIGDYQSLTLKYPHLKAQFFENSVLLPAFINAHTHFEFSNNKASFDYGSFSGWLGSVLNNGGAILENCQGAIQNAISTQLKSGVGSVGAISNHLIEVNLLKESPLNAVVFLEFLGSSYSLEKLKAFEAKFKELKDLEDKKLKAALAVHAPYSVQKDMALSVIQLAKDSQSLLSTHFLESLEELEWVENSKGWFENFYQHFLKESHFKSLYKGANDYIDMFKDTHTLFVHNQFASLEALKRIKSQVKNAFLITCPFSNRLLSGQALDLERTKEAGLSVSVATDGLSSNISLSLLDELRAFLLTHNMPLLELAKIALLGATRHGAKALALNNGEIEANKRADLSVFGFNEKFTKEQAILQFLLHAKEVECLFLGGKRVI
notes: native protein captured from H. pylori lysate with adenine-coated gold nano-particles, gel filtration; no tag
Km (purified protein [6]): 2040 ± 160 µM
Vmax (purified protein [6]): 3 µM/min
kcat (purified protein [6]): 0.00783 ± 0.00217 s⁻¹
kcat/Km (purified protein [6]): 4 M⁻¹ s⁻¹
